Measured values from paper PMC4330387.

Experiments:
[1] = target: T1, GST-ZFDBD-ZBTB2 (human, UniProt Q8N680 254-468); experiment: EMSA
T1 sequence: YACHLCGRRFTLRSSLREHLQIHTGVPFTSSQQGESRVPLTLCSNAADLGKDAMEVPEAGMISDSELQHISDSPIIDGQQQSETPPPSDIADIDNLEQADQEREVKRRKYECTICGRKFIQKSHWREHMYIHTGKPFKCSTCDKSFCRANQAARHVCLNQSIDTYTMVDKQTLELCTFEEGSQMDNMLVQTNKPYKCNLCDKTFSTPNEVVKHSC

[2] = target: Sp1 (recombinant) (UniProt P08047 1-785); experiment: EMSA
Chain of Sp1 (recombinant) (P08047 whole entry): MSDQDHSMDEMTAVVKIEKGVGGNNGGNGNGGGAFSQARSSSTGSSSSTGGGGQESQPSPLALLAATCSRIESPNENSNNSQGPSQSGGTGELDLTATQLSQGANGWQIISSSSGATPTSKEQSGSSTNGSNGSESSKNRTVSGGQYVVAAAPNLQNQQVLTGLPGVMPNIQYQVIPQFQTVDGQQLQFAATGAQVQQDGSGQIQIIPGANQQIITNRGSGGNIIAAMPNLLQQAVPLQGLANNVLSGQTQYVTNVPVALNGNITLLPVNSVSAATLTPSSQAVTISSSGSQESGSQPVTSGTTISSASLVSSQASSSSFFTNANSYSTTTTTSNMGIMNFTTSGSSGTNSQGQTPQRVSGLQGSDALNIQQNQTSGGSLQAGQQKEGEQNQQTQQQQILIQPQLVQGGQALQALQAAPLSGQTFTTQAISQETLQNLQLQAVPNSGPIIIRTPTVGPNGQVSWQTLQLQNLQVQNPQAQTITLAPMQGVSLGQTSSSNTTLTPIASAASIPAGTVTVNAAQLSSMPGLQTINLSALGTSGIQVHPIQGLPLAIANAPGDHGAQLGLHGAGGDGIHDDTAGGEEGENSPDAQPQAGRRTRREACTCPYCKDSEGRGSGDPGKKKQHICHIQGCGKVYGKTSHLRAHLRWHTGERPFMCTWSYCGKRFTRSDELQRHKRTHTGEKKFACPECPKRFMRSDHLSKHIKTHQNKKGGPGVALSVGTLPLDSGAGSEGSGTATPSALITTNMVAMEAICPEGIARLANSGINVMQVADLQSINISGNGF

B1: GC-box #3 EMSA probe (dsDNA)
DNA 1: GATCTTTCCCTGCGCGGGGCGGGCGGCCGCAGCCC
DNA 2: GGGCTGCGGCCGCCCGCCCCGCGCAGGGAAAGATC
binding result [1]: binds
binding result [2]: binds
